Measurements as given in the DeepSol protein solubility set.

Assay: soluble on expression in E. coli; label from the status in PepcDB or PDB records

Row | Sequence | soluble on expression in E. coli
1 | MSLEFLQRDQAPLTAEEWEQIDKTAYEVFKSTVVCRKFMPVVGPFGAGHQVVSYDVLYGVEPGVCEVKPGQEYKVCEPVRTGERKHVPVPTLYKDFVISWRDLEHWRQFNLPVDTTGVAAAASSLAVAEDKLILFGNQEMGIEGFLTAKGTLREELSDWEKVGNAFQDVVKGISRLVEKGFYTNYYLIVNPKRYFLLNRIHDNTGLLELEQIKKVVKEVYQTPIIPEDIVLLVSASPANFDLAIALDVNVAFVETSNMNHTFRVMEMVVPRIKRPEAILIFSSEGHHHHHH | not soluble
2 | MSLEKAARHKQEVDTVQDKKVVNITGQGSTSRFFLPTALIRLRDASAQSIRTVLNQFFDRADDALFELADRAGTDQEQTRYFDAMRELRLRRKSMTVAVLHHVGQAFNDIGKFRPQSTVSSLDSVDEGFLSLLDHAELEQQVAIDNMVTKLRYQYSEALRHLSLRVRHLLPGVTLEDDQMPLCPEVLCGGLAAASKDLDVDIKARLIVLKLFDQLLVTSLGEVYHGANVTLIKEGVLPDSKAVRPVQTARSRQGAPVPPPSVVYREADWYGVGQPQAEVSAATFSQLSALLRQGQPAYGDGQAPASGGQWLQTDALLARLSQVQTAFGNDPGAPLVSLSQQLQPVLQNSSGQSLRPGQVDNDVINLVAMLFEFILDDRHLHSVMKSLLGRLQIPILKVALTDKNFFNRGGHPARKLLNEMALAATGWTEKRPGQRDPLLDKISAVVNRILAEFSTDVSLFNELLDDFNQFSDLDQRRSDLVEQRLRDAEEGRARHEQATADTKELLHEAMDGRLLPEPVQDMLNGPWSHYLHWLALHESTDSEAWQRAKTLTEQLIWTIDPVPLTATTHELLQQAIPQVIEQLRGALEGVAWDGLSVEMVVRDLELVHLDVFQRLVIAPSEAAGNDHAQIDDSQEAPAVRADAVPSDTTNTSADVSHPAPALPVAADDPKEAVVARVPEPTRAQPVVAEEWLAKADGLRVGCWLELNRDGSQIRCKLAAFIRAVDKYIFVNRSGAKVAEYRRNELAEMMAQGHIEILDDGLIFDRALESIIDNLRTSRREGHHHHHH | not soluble
3 | MSLELENFQEYNDPVLYDKENRYTGDIPFLLKWAGKVDGTIVDLACGTGRATIPLASKGYKLMGVDVHKGMLEAAREKSSRLNLPIEWIKQDCTKLSLNLMSPFIYSVGNVFQHFLTNEEQDSFLTSVNKHLKESGIFIFDTRFPSKEELLQPNTEEYWKSYQDTDTGQKVDVYTISQYDPLTQIQHYTMIRKSVNAEGLAVNEKRTNIRLRYVFPKEMERLLSANGFEIIDVYQDWQETPLTRDSDQMIYVCKKSSEGHHHHHH | soluble
4 | MSLELPAEVQEMPIYREWISGILAGKIASPFWEMAQPQKNQHCLDIGCGVSFLIYPWRDWQAFFYGQDVSNVARDTLNSRGSQLNSKLFKGVELGAAHQLKYTLSYFDLAIATGFSCYFPLEYWTSVLQAVKRVLKPDGHFVFDILNAAHPQAEDWAVLETYLGAEVFLEPVTEWEKIINAAGAKVVGRQPGEFFDLYKLRLEHHHHHH | soluble
5 | MSLELSDCSVPLTKEDIKDFEMELNIKIPAAMKNFYLKFNGGMPSPYCFQPQDEDLDWVEINAFFPIKERTNAFETIEVIAKDIWSKNLMPCNLLPFAMDSGGNYYTLNLKNKKIYYYLTDEWDENASKEYNFETNTRYIAQSFNYFINHFIEEEEEGHHHHHH | soluble
6 | MSLELTVFSIGDWGEKTECLVNVTTKMGSLESAMNPKFIISVGDNFYQRGVKSVEDAAWTEILEEPFGKLSKHLKVHSCLGDHDWRGSTTAQIDRTNYANNTRWYLPGYWWYEKVTFTSEVSLPSLFEKSGLGEISANNSFHFNSSKTENSTSCEIDCLDEIVDNLNTMVNRNNSWNEDLSYKTSISEYFSEKQVNSTAVFIYIDSWTLTQDPFKKTSISYKYSQLEFIEQTLKAAVFENVDWIILVTHYSIYSSGLHGPHTRLASILMPLIKKYRVDFIISGHDHHSEILVPEDFNSYFQIVGASSKEGHHHHHH | soluble
7 | MSLEMTIAYIQENPYRLADEISGIGFKKADQIARAMGISLNSKYRIHSGIKYMLGTFHGEGHTYAPGDILIDRTRELLSVEESEVVEGIQELALKQKIQLERQDEEIIVYSMPYFYAETNTCNKLIELSQVELEPLEIDVDYEIESIEKEDGIALATNQKEAIRQSIENGIIVITGGPGTGKTTIINTLIKVFGKLKKKILLAAPTGRASKRMTEATGKEAKTIHRLLEMGYSDDDDGMLFQRNEENPLPADIIIIDEVSMVDIMLMNSLLKAISVGTRLIFVGDVDQLPSVGAGNVLRDIIDSKIIKVVRLNEIFRQAEESMIVVNAHKINKGEYPILNHKDKDFYFMSRSRSEDILNTIIGLVKERLPKHYKFDPIKDIQVLTPMKKGEVGSINLNKELQNYLNPPDKYKREKELREKVFRVGDKVMQIKNNYTLKWASLDPDTEERQGEGVFNGDMGYIQHINPEAQELTVFFDDNRSVVYTYTQLDELELAYAITIHKSQGSEFPVVVMPVTWGPPMLLTRNLLYTAITRARSLVVLVGTENYLNLMVSNNKIVERYSGLGIRLKKFYNEGHHHHHH | soluble
8 | MSLENDSLEITYLGKRYKISLNNTFSDEMKRTLKERFHNQELNALELLKDYLHESCQNEYLHNELQKLLEKISSCSIT | not soluble
9 | MSLEQHGNVVSVGLKLYNEILKETITRFKERRIEKKHSVNVEIENPPGRFFIPEDYVQNPVERLRLYRRLASSLDEEDLEEILEEMKDRFGEPPEEVKLLVDYFRLRVRASKLGIKKIRFDHSMVEIFPSRNSPFLNHPRYDRRSGSVVLYTRKDPVEFLMDMLKKEGHHHHHH | soluble
10 | MSLEQLLGRGEAAPSVRYDETIQKIIPIIKNSIRLPDDLRDRKTIWEFIRPQLMGIKALEAGFSMALWDWWGQKIGRPIFELLSVKTKMLPQTSYTISIGGFDELGAKLEEAKPYSILKVKLGTPKMDKEIITEIRRHTEKLIRVDANEGWTEDVALEMSFWLADRNIEFIEQPFPAKDLNSSIELKKKSPLEIFADENSLNSNDIKPIRHAFHGINIKLMKCGSLEEGKKMIDVARENGLKVMLGCMVETSVGITSASHLAGEVDFVDLDGNLLIKNDPYSGVLVNNGRLVLQKGNGSGVKLSSDYRNILEEGHHHHHH | soluble
11 | MSLEQPGFKLRAVTIHFEASADVDSIEDAVFKAKEAIDRLTAEKGVEVWSLRAVLTPGESVADSLGRVAELEPLVEEEGVFINLGLHNASADDWEAVSGIVESGFFLSFALENGTWEEARSYSKLLHRLADKSPDLAVHIGFNPLGTHILTPYFPLATSPGEQRTVTVALLYPRYLLESFRKGGLQAVIDSMVDAAQLSGEYGKAVAKDVEGSFAGVDLSISPWMEESSLALVEEVGGVRLPEPGFAYGLRLVNEAIAAAASKTGYAVGFNEVQLPVAEDSKLKVRVAELETSARDLLRLSGVCLAGLDMAVIPASLDGVAGLLLEARAYSRAKGSIVGVRLIPLDGVEPGDEVFLKRFGEVPVIPIEGHHHHHH | not soluble
12 | MSLERTTHQSLNGSWQFQPVAATLHVTPQLQAPAGGWKKINVPDNWYRQGHDISGYAWYQTRFALDAHNASRVAHLVFHGVDYSADVWLNDRYLGHHTGYFQPFEFDVTGLVKPGENQLRVLVNSPLEQPQDWSLHKRLVKGIFSHHDTRPGGAWSERGQEKNTGGIWAPVELQFADRAAVRQLQVTPRKQATEANPQQWVVSTEADIHHDVSHETSVTVEARILPENFKGASFAFKQSQTLQPGGNHIAFSFPVDNPALWWPYEYGHPNLYRLELSVKDASGKLLDQREQVFGVREVKVDDGLQWFINGRRMFLRGTNYIASQWLAEMTPDRYRRDLEMMQAAHINAVRVHAHVTGQDFYELCDRMGILVTQDFPLLWGYSDDPDFIAEARRQAKDMVQLLQRHPSIISWTMHNEPPWDSPWMAQKYPDYHPDINRRLDALLYEDVSKLDTLRVVRKESATKEHEWMGWYFDHWLAFSRPAPTPWSTEFGAQALPNLKSLERMFSKALLWPDTEAKWQVWEYHNFQRKETFEFAGVKQGGNIEEFIANSQHYQARLIQFAVENYRRQRYAPVSAVFQFMFVENWPSINWGIVDYWREPKAGYEALRVAYQPVLPSLEWKQDEYEAGASPRIGLWAINDTWSGFEHASYTVTLYREGKPLDMLKLPLEMLPDSGYKLRDYALPVLEKGQYEIKAEITGQDGKSMGRNQYRFSVKEGHHHHHH | soluble
13 | MSLETETMSQDLMQRGKAIKLAVFDVDGVLTDGRLYFMEDGSEIKTFNTLDGQGIKMLIASGVTTAIISGRKTAIVERRAKSLGIEHLFQGREDKLVVLDKLLAELQLGYEQVAYLGDDLPDLPVIRRVGLGMAVANAASFVREHAHGITRARGGEGAAREFCELILSAQGNLEAAHSVYLEGHHHHHH | soluble
14 | MSLFMNPHRRFWMVTGWTKSAIWVARWLLGIRWQCQGWEHIEEAVATNKQVVLLSKHQSAWETIAFVAIMPRPLCYVFKRELLYVPFFGWALGMLKMVHINRKDGTNAFASVARQGKERMADGSWIIMFPEGTRTPVGAPNPRYKSGGARLAVDTGAWVIPIAHNSGRLWPRNAFLKYPGLITLSIGPAISSAGKSGDQLNREVQAWIEAEMRRIDADSYEGHHHHHH | not soluble
15 | MSLGDFSELARVNGEPVYVKEYKMKLLSNTTEVINYFSQSYAVETKENFRTDSYSGEAPVEMARKKALDDIVEVKVQQILAKEKGIIESTDYREFLKELENENRQRKDALKSNKVVYGPDNYGEIEYFNYSFDNMVSKLKEKLKENELSIPEEKLESMYNLLKDTRFKLPDDIKIQVISIGFTDEKGIINDDLKSKARVKIEEAKKRIDNGEPFEEVALDYNPKSGVLEYVFTKEKQMAKDISHPELLDEALKLKPGQVSEIIERSTDFVLILCKEKKSTGYLPYKDARKQLLDELIEKDYQEYIDKLVEQADVKINEKLYRRINVNEGHHHHHH | soluble
16 | MSLGEDEEKAFIVGTVQAIFFENPSNFYKVVLVNVTDTNTDYLEKEIVVTGSFGQVQEEEPYRFFGHFVDHPRYGRQFQVDSYQQERPTSASGVVNYLSSDKFPGIGKRTAEKIVEVLGESAIDRIIDDPSVLEEVTVLNEKKRQVIVETIRLNHGMEQVIVGLNRYGFGSQLAFSIYQTYQEETLSVIQENPYQLVEDIEGVGFKRADNIAEQIGIQADSAVRIRAAILHEVFEHSIRSGNTYVQADVLLEEAIRTLEASRPVEISPDQVANEIITLVEHGKIQQEETKLFENSLYFSEWGIGTSIQRLLSRKKEIHYEEEEVQKNIRMIEKRLNIQYGDSQQAAIEEAIKSPLFILTGGPGTGKTTVINGIVSLFAELNGLSLDLKDYTQEMFPILLAAPTGRAAKRMNETTGLPASTIHRLLGLTGREKNPSLTAKELEGGLLIVDEMSMVDTWLANTLLKAIPTNMQVIFVGDKDQLPSVGPGQVLHDLLQINEIPKCELNEIYRQGDGSSIIPLAHEIKEGKLPADFQKNQKDRSFFASDIGHIEEYIRQIVTKAKAKGFTPQDIQVLAPMYRGAAGIDALNKMMQEIFNPNDGKKKEVKWNDTVYRIGDKVLQLVNTPELNVFNGDMGEIVGITLAKDSEDKVDELVLQFDNNEVTYKRNEWNKITLSYCCSIHKAQGSEFRMVLLPMVHQYSRMLQRNLLYTAVTRSKELLILLGEVSAFETCVKNESASRMTMLKERIVNAEQEGHHHHHH | soluble
17 | MSLGEETSYCFKEKSRGVLREWYAHNPYPSPREKRELAEATGMTTTQVSNWFKNRRQRDRAAEAKERENTENEGHHHHHH | soluble
18 | MSLGEVCEIMQAYGGVSIVNALPSWYGSSMAINLKVKVEIREGKRVYSQESELIKTILNYFKEKYSIPDIEVDIESELPQKSGLKSSSAVSVALIAEIAKQYDLRNINPPILSAILSLKAGVSYTGALDDAVASYCGGIAFTYNKMFRIVKLENLEDNLSILILAKGGRQKPVNLNELRKYSHVFEEIFKIALKDYLTAMKMNGILIANILGYSLEPIEIALKKGALAAGISGNGPSYFAVSKNGEEGPIYESLKKFGDVIIVRPVSLDCKDLSIKEGHHHHHH | not soluble
